In IntAct's records for PubMed 16923827:

B1: Spindle pole body assembly component MPS3 (Saccharomyces cerevisiae), P47069 (parent)
chain: MNNSNEHRREEAGAANEQMPYNKAVKSAYADVLKDKMNREQEISLRAIKKGIYTDGGETDNYDMDKENDSAYEMFKKNLDFPLDQHNDDDDDDPYIEDNGQETDGYSDEDYTDEADKSFIEDSDSDSYDLESNSDFEENLESSGEAKKLKWRTYIFYGGLFFVFYFFGSFLMTTVKNNDLESHSSGATSSPGKSFSNLQKQVNHLYSELSKRDEKHSSELDKTVKIIVSQFEKNIKRLLPSNLVNFENDINSLTKQVETISTSMSELQRRNHKFTVENVTQWQDQLVKQLDTHLPQEIPVVINNSSSLLIIPELHNYLSALISDVIESPGIGTAGSAESRWEYDLNRYVKEILSNELQYIDKDYFIQEMNRRLQSNKQEIWEEITNRLETQQQQQQQQVQQDYSNVPQQYSSILMKRLIHQIYNSNQHQWEDDLDFATYVQGTKLLNHLTSPTWRQGSGVQPIELLTDSKQSSSTYWQCENEPGCSWAIRFKTPLYLTKISYMHGRFTNNLHIMNSAPRLISLYVKLSQTKEIKALQTLANQYGFGQHHKRDRNYIKIAKFEYRLTDSRIRQQMYLPPWFIQLKPLVRSIVFQVDENYGNKKFISLRKFIINGVTPQDLQIIENNEFPVLLGDTPEYGVTQNTDEGKRKVLLSKPPYASSSTSTKFHPASNVPSFGQDELDQ
partner: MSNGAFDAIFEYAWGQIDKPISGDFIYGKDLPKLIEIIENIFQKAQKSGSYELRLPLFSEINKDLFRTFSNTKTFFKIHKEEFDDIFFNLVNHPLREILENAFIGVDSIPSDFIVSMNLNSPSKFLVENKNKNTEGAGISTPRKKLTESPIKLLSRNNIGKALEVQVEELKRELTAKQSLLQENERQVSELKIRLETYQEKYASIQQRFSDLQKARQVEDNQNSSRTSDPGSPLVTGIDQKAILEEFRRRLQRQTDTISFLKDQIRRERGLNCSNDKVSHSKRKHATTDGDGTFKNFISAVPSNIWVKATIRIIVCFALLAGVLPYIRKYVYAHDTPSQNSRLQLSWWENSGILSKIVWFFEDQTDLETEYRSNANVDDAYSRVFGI

Variants of: B1
Conditions: with mps2_yeast MPS2, P53159

Effect of a mutation on the interaction, decreasing interaction:
W487A
W477A
Q572L;Q573L
